Test results from paper doi:10.1101/2020.09.30.318261 (bioRxiv, 2020).

Target: SARS-CoV prefusion stabilised spike ectodomain trimer (SARS-CoV Urbani, stabilised)
Assay: cryo-EM structure

B1: 47D11 Fab fragment (Fab, V domains shown)
VH: QVQLQESGPGLVKPSETLSLTCSVSGGSISSHYWSWIRQPPGKGLEWIGYIYYSGSTNHNPSLKSRVTISVDTSKNQFSLKLSSVTAADTAVYYCARGVLLWFGEPIFEIWGQGTMVTVSS
VL: EIVMTQSPATLSVSPGERATLSCRASQSVSSSLAWYQQKPGQAPRLLIYGASTRAPGIPARFSGSGSGTEFTLTISSLQSEDFAVYYCQQYNNWPLTFGGGTKVEI
stoichiometry N: 3 Fab per spike trimer
